These results are taken from patent US20170298096A1 (CANIMGUIDE THERAPEUTICS, published 2017).

No end group written: not given here.

First the molecules themselves.
B1: SEQ ID NO 19 (peptide)
peptide: KKLDTFFVKLSQFTER
B2: SEQ ID NO 304 (peptide)
peptide: KKLDCFFVKLSLFTER
B3: SEQ ID NO 29 (peptide)
peptide: KKLDTFFVKLSLATER
B4: SEQ ID NO 31 (peptide)
peptide: KKLDTFFVKLSLFNER
B5: SEQ ID NO 312 (peptide)
peptide: KKLDYFFVKLSLFTER
B6: SEQ ID NO 301 (peptide)
peptide: KKLVTFFVKLSLFTER
B7: SEQ ID NO 315 (peptide)
peptide: KKLDTMFVKLSLFTER
B8: SEQ ID NO 30 (peptide)
peptide: KKLDTFFVKLSLRTER
B9: SEQ ID NO 307 (peptide)
peptide: KKLDPFFVKLSLFTER
B10: SEQ ID NO 279 (peptide)
peptide: RKLDTFFVKLSLFTER
B11: SEQ ID NO 268 (peptide)
peptide: AKLDTFFVKLSLFTER
B12: SEQ ID NO 21 (peptide)
peptide: KKLDTFFVKLSMFTER
B13: SEQ ID NO 298 (peptide)
peptide: KKLATFFVKLSLFTER
B14: SEQ ID NO 289 (peptide)
peptide: KKIDTFFVKLSLFTER
B15: SEQ ID NO 300 (peptide)
peptide: KKLITFFVKLSLFTER
B16: SEQ ID NO 282 (peptide)
peptide: KKADTFFVKLSLFTER
B17: SEQ ID NO 294 (peptide)
peptide: KKRDTFFVKLSLFTER
B18: SEQ ID NO 292 (peptide)
peptide: KKNDTFFVKLSLFTER
B19: SEQ ID NO 20 (peptide)
peptide: KKLDTFFVKLSVFTER
B20: SEQ ID NO 303 (peptide)
peptide: KKLYTFFVKLSLFTER
B21: SEQ ID NO 288 (peptide)
peptide: KKHDTFFVKLSLFTER
B22: SEQ ID NO 274 (peptide)
peptide: LKLDTFFVKLSLFTER
B23: SEQ ID NO 272 (peptide)
peptide: HKLDTFFVKLSLFTER
B24: SEQ ID NO 283 (peptide)
peptide: KKCDTFFVKLSLFTER
B25: SEQ ID NO 310 (peptide)
peptide: KKLDSFFVKLSLFTER
B26: SEQ ID NO 33 (peptide)
peptide: KKLDTFFVKLSLFRER
B27: SEQ ID NO 271 (peptide)
peptide: GKLDTFFVKLSLFTER
B28: SEQ ID NO 26 (peptide)
peptide: KKLDTFFVKLSLPTER
B29: SEQ ID NO 302 (peptide)
peptide: KKLWTFFVKLSLFTER
B30: SEQ ID NO 313 (peptide)
peptide: KKLDTAFVKLSLFTER
B31: SEQ ID NO 296 (peptide)
peptide: KKTDTFFVKLSLFTER
B32: SEQ ID NO 281 (peptide)
peptide: VKLDTFFVKLSLFTER
B33: SEQ ID NO 306 (peptide)
peptide: KKLDNFFVKLSLFTER
B34: SEQ ID NO 297 (peptide)
peptide: KKVDTFFVKLSLFTER
B35: SEQ ID NO 28 (peptide)
peptide: KKLDTFFVKLSLGTER
B36: SEQ ID NO 280 (peptide)
peptide: TKLDTFFVKLSLFTER
B37: SEQ ID NO 273 (peptide)
peptide: IKLDTFFVKLSLFTER
B38: SEQ ID NO 314 (peptide)
peptide: KKLDTIFVKLSLFTER
B39: SEQ ID NO 286 (peptide)
peptide: KKFDTFFVKLSLFTER
B40: SEQ ID NO 278 (peptide)
peptide: QKLDTFFVKLSLFTER
B41: SEQ ID NO 287 (peptide)
peptide: KKGDTFFVKLSLFTER
B42: SEQ ID NO 27 (peptide)
peptide: KKLDTFFVKLSLSTER
B43: SEQ ID NO 308 (peptide)
peptide: KKLDQFFVKLSLFTER
B44: SEQ ID NO 299 (peptide)
peptide: KKLETFFVKLSLFTER
B45: SEQ ID NO 270 (peptide)
peptide: EKLDTFFVKLSLFTER
B46: SEQ ID NO 316 (peptide)
peptide: KKLDTNFVKLSLFTER
B47: SEQ ID NO 275 (peptide)
peptide: MKLDTFFVKLSLFTER
B48: SEQ ID NO 277 (peptide)
peptide: PKLDTFFVKLSLFTER
B49: SEQ ID NO 284 (peptide)
peptide: KKDDTFFVKLSLFTER
B50: SEQ ID NO 285 (peptide)
peptide: KKEDTFFVKLSLFTER
B51: SEQ ID NO 32 (peptide)
peptide: KKLDTFFVKLSLFPER
B52: SEQ ID NO 269 (peptide)
peptide: DKLDTFFVKLSLFTER
B53: SEQ ID NO 293 (peptide)
peptide: KKQDTFFVKLSLFTER
B54: SEQ ID NO 311 (peptide)
peptide: KKLDWFFVKLSLFTER
B55: SEQ ID NO 295 (peptide)
peptide: KKSDTFFVKLSLFTER
B56: SEQ ID NO 309 (peptide)
peptide: KKLDRFFVKLSLFTER
B57: SEQ ID NO 291 (peptide)
peptide: KKMDTFFVKLSLFTER
B58: SEQ ID NO 276 (peptide)
peptide: NKLDTFFVKLSLFTER
B59: SEQ ID NO 305 (peptide)
peptide: KKLDMFFVKLSLFTER
B60: SEQ ID NO 290 (peptide)
peptide: KKKDTFFVKLSLFTER

In this experiment the target is T1, His-tagged P3028 (human, also: His-tag, terminus and sequence not given here).
T1 construct: used in solution in the PEPSCAN (rampo) ELISA; also called PGE73; His-tag-P3028; not shown: His tag
T1 peptide: VFDEFKPLVEEPQNLIK
Description: PEPSCAN ELISA (rampo).
In turn, B1 gave a rampo value of more than 500 rampo units.

Regarding B2, the “rampo score relative to the P28R control sample” value is ≥ 98 % of P28R control. B3 had a rampo value of more than 500 rampo units. In turn, B4 registered a rampo value of more than 500 rampo units. Turning to B5, the “rampo score relative to the P28R control sample” value was ≥ 98 % of P28R control. Turning to B6, the “rampo score relative to the P28R control sample” value is ≥ 98 % of P28R control. Same read-out and setting: with B7 the figure was ≥ 98 % of P28R control. For B8, the rampo value is more than 500 rampo units.

With B9, the “rampo score relative to the P28R control sample” value is ≥ 98 % of P28R control.

As to B10, the “rampo score relative to the P28R control sample” value was ≥ 98 % of P28R control. B11: the “rampo score relative to the P28R control sample” value was ≥ 98 % of P28R control. Molecule B12 had a rampo value of more than 500 rampo units. Turning to B13, the “rampo score relative to the P28R control sample” value is ≥ 98 % of P28R control. Consider B14, for which the “rampo score relative to the P28R control sample” value was ≥ 98 % of P28R control.

For the molecule B15, the “rampo score relative to the P28R control sample” value was ≥ 98 % of P28R control. Same read-out and setting: with B16 the figure was ≥ 98 % of P28R control; with B17, ≥ 98 % of P28R control. On the same count and under the same terms, with B18 the figure was ≥ 98 % of P28R control. For B19, the rampo value was more than 500 rampo units.

Consider B20, for which the “rampo score relative to the P28R control sample” value is ≥ 98 % of P28R control. Consider B21, for which the “rampo score relative to the P28R control sample” value is ≥ 98 % of P28R control. For the molecule B22, the “rampo score relative to the P28R control sample” value is ≥ 98 % of P28R control. In the case of B23, the “rampo score relative to the P28R control sample” value was ≥ 98 % of P28R control.

With B24, the “rampo score relative to the P28R control sample” value was ≥ 98 % of P28R control. B25: the “rampo score relative to the P28R control sample” value was ≥ 98 % of P28R control.

Turning to B26, the rampo value was more than 500 rampo units.

Turning to B27, the “rampo score relative to the P28R control sample” value was ≥ 98 % of P28R control. B28 gave a rampo value of more than 500 rampo units. Turning to B29, the “rampo score relative to the P28R control sample” value is ≥ 98 % of P28R control. For B30, the “rampo score relative to the P28R control sample” value is ≥ 98 % of P28R control.

For the molecule B31, the “rampo score relative to the P28R control sample” value is ≥ 98 % of P28R control. Regarding B32, the “rampo score relative to the P28R control sample” value was ≥ 98 % of P28R control. Consider B33, for which the “rampo score relative to the P28R control sample” value was ≥ 98 % of P28R control.

As to B34, the “rampo score relative to the P28R control sample” value was ≥ 98 % of P28R control. B35 yielded a rampo value of more than 500 rampo units.

In the case of B36, the “rampo score relative to the P28R control sample” value was ≥ 98 % of P28R control. Regarding B37, the “rampo score relative to the P28R control sample” value was ≥ 98 % of P28R control. With B38, the “rampo score relative to the P28R control sample” value is ≥ 98 % of P28R control. For B39, the “rampo score relative to the P28R control sample” value is ≥ 98 % of P28R control.

On to B40, for which the “rampo score relative to the P28R control sample” value is ≥ 98 % of P28R control. As to B41, the “rampo score relative to the P28R control sample” value is ≥ 98 % of P28R control.

The molecule B42 returned a rampo value of more than 500 rampo units. As to B43, the “rampo score relative to the P28R control sample” value is ≥ 98 % of P28R control.

Turning to B44, the “rampo score relative to the P28R control sample” value was ≥ 98 % of P28R control. In the case of B45, the “rampo score relative to the P28R control sample” value was ≥ 98 % of P28R control. As to B46, the “rampo score relative to the P28R control sample” value is ≥ 98 % of P28R control. As for B47, the “rampo score relative to the P28R control sample” value is ≥ 98 % of P28R control. Turning to B48, the “rampo score relative to the P28R control sample” value is ≥ 98 % of P28R control. Same read-out and setting: with B49 the figure was ≥ 98 % of P28R control.

For B50, the “rampo score relative to the P28R control sample” value was ≥ 98 % of P28R control. For the molecule B51, the rampo value was more than 500 rampo units. On to B52, for which the “rampo score relative to the P28R control sample” value is ≥ 98 % of P28R control. Regarding B53, the “rampo score relative to the P28R control sample” value was ≥ 98 % of P28R control. Regarding B54, the “rampo score relative to the P28R control sample” value was ≥ 98 % of P28R control. With B55, the “rampo score relative to the P28R control sample” value was ≥ 98 % of P28R control. As to B56, the “rampo score relative to the P28R control sample” value is ≥ 98 % of P28R control. Regarding B57, the “rampo score relative to the P28R control sample” value was ≥ 98 % of P28R control. As to B58, the “rampo score relative to the P28R control sample” value is ≥ 98 % of P28R control.

For the molecule B59, the “rampo score relative to the P28R control sample” value is ≥ 98 % of P28R control. B60: the “rampo score relative to the P28R control sample” value is ≥ 98 % of P28R control.
